Measured values published in the DeepSol protein solubility set.

assay: soluble on expression in E. coli; label from the status in PepcDB or PDB records

Sequence	soluble on expression in E. coli
MATFEEVSVLGFEEFDKAVKEHESKTIFAYFSGSKDTEGKSWCPDCVEAEPVIREGLKHVTEDCVFIYCQVGDKPYWKDPNNDFRQKLKITAVPTLLKYGTPQKLVESECCQSSLVEMIFSED	soluble
MATGAMSRSNDWTKSLSDAQPVPYWLDDPGRPRPEAALTGTETCDLLVVGGGYSGLWTALIAKERDPGRDVVLIEGREVGWAASGRNGGFCAASLTHGLSNGLTRWPDDIHRLEELGARNLDAIEAAVARHGLDCDFERTGEIDVATEPHQARELEEWYAEIRAQGLAEGVEYLDAEAVREQVDSPTFRAGLWDRRGVAMVNPAKLAWGLKRACLALGVRVHEHTPALTLKPYGAGMAVRTPYGAVRARTVALGTNVFPNLVRRVRPYTVPVYDYALMTEPLSDGQLASVGWQNRQGLGDSANQFHYFRLSRDNRILWGGYDAVYPYGGRVRAEYDHRPETYAKLAGHFFTCFPQLEGVRFTHAWGGAIDTCSRFSAFFGTAHRGRVAYAAGYTGLGVGATRFGAEVMLDLLSGERTERTELEMVRTKPLPFPPEPFAWTGIALTKWSLARADAHGGRRNLWLRTMDRLGLGFDSLEHHHHHH	not soluble
MATIRTKFRSSSAEGREGALYYQVIHNRVVRQISTGYKLFASEWDQRSEAVIPCQHPAGMERDNYLLSVGERIRRDKIRLEKAIRTLSQSGPFTADDIVIRFHDSGQEPSFNDYIRQQIVRLKRLGKIRTSETYTAALKSFSSFMKGSDILFGELSSDLLMEYEAYLKNRGNSPNTISFYMRILKAVYNRAVENGLTGQRNLFKSVYTGVEKTLKRAIHLNDIRRIKRLDLSLKPHLDFARDMFLFCFYTRGMSFVDMAYLKKGDIANGILTYRRKKTGQQLFIRWEKCMQEIIKLFCLSVQDFKVVH	not soluble
MATLLRSLALFKRNKDKPPITSGSGGAIRGIKHIIIVPIPGDSSITTRSRLLDRLVRLIGNPDVSGPKLTGALIGILSLFVESPGQLIQRITDDPDVSIRLLEVVQSDQSQSGLTFASRGTNMEDEADQYFSHDDPISSDQSRFGWFENKEISDIEVQDPEGFNMILGTILAQIWVLLAKAVTAPDTAADSELRRWIKYTQQRRVVGEFRLERKWLDVVRNRIAEDLSLRRFMVALILDIKRTPGNKPRIAEMICDIDTYIVEAGLASFILTIKFGIETMYPALGLHEFAGELSTLESLMNLYQQMGETAPYMVILENSIQNKFSAGSYPLLWSYAMGVGVELENSMGGLNFGRSYFDPAYFRLGQEMVRRSAGKVSSTLASELGITAEDARLVSEIAMHTTEDKISRAVGPRQAQVSFLHGDQSENELPRLGGKEDRRVKQSRGEARESYRETGPSRASDARAAHLPTGTPLDIDTASESSQDPQDSRRSADALLRLQAMAGISEEQGSDTDTPIVYNDRNLLD	not soluble
MATLVVNKLGAGVDSGRQGSRGTAVVKVLECGVCEDVFSLQGDKVPRLLLCGHTVCHDCLTRLPLHGRAIRCPFDRQVTDLGDSGVWGLKKNFALLELLERLQNGPIGQYGAAEESIGISGESIIRCDEDEAHLASVYCTVCATHLCSECSQVTHSTKTLAKHRRVPLADKPHEKTMCSQHQVHAIEFVCLEEGCQTSPLMCCVCKEYGKHQGHKHSVLEPEANQIRASILDMAHCIRTFTEEISDYSRKLVGIVQHIEGGEQIVEDGIGMAHTEHVPGTAENARSCIRAYFYDLHETLCRQEEMALSVVDAHVREKLIWLRQQQEDMTILLSEVSAACLHCEKTLQQDDCRVVLAKQEITRLLETLQKQQQQFTEVADHIQLDASIPVTFTKDNRVHIGPKMEIRVVTLGLDGAGKTTILFKLKQDEFMQPIPTIGFNVETVEYKNLKFTIWDVGGKHKLRPLWKHYYLNTQAVVFVVDSSHRDRISEAHSELAKLLTEKELRDALLLIFANKQDVAGALSVEEITELLSLHKLCCGRSWYIQGCDARSGMGLYEGLDWLSRQLVAAGVLDVA	soluble
MATMDEKPLYGLERTVFRQLLHLFSRYADVIEKVILFGSRARGDYKEGSDIDLAIKFRKPGGPLYLLQSDLDELPIIYPIDVVDYNQIHNEQLKMNIDQEGKTIFQTNEHGKVMVTMSRLMDRFYDFERALSKLRQSAARDAQTDDLVVDATIQRFEFTYELAWKWMKLYLEHQGYAEVTSPRKTIREAFREGLIQDGETWLRMLEDRNRTSHTYDEETAMDIYERIRIHYIPLFDRLLDEMKQRLDSAT	not soluble
MATMLSRYFLLTVAALFAQSASAIEVLTSIKPIQMITYELMLGTGTPDVLLPSGASPHDYALRPSDVKRIQQADLVIWFGQDLEPFMSKLLEGRTSALTLSQVPNLALREYGEEEQHEHDGHHHGHYDPHFWLGIGPVGQVASAITAKLIELDADQQQQYQDNLVRFLANLAEQDNTIGEKLKPVTTVPYYVFHDAYGYFEQHFALNNLGHFTVSPERKPGAKTLIAIKKTLNDQLAKCVFSEPQFEPAIIETVVRGTSAKIGVLDPLGISIELQAGSYFAFLNSLAESYYACLSQS	not soluble
MATPETRRRPNILVTGSPGTGKSTLGQQVAEKLGFVFIEVSKEVRENNLQGDFDEQYNCHVLDEDKLLDHISDRLDSDEGGIVVDYHGCDLFPERWFDVVVVLRCPTEKLYDRLQSRGYSEFKIKENVECEIFGTLLEEARESYSEDIVHELQSETTEQMEENLERICELAGEFKNEHTMEQ	not soluble
MATQARLPLPVGSTTSVSVVIPAKNVAAYVGETLASALAQGEVTEVIVVDDGSTDNTIAIVRAIRDPRLRLMTNDSAGVSAARNLGARHASGEWLLFLDADDRLRPGAVAALLAAARGAPRAVLVYGDYNTIDSEGRQVGRRDLLKGRRKPSGDVLTRLAASNFIVNGGIALARAEAFRAIGGFDTSLRYCEDWHCWCRLAAIGEFEFAPKLLLDYRLHTANTMNAAVRTPQDFFPAIARVFDDGLILARLPEGTAARLRQAAEIHLVTYSAMQAVRFGRYRQAFTYLGMVGRRSLKSLPRSALRVALACFGILEHHHHHH	not soluble
MATQDDAHLAELKKKRTFRKFMYRGVDLDQLLDMSREQFTKLLPCRMRRRLDRGLKRKHLALIAKVQKAKKAAGVLEKPATVKTHLRDMIILPELVGGVIGIYNGKVFNQTEIKPEMIGFYLGEFAISYKPVKHGRPGIGATHSSRFIPLK	not soluble
MATQQAKILCCGDVNGNFVELIKKISTTEKKNGPFDSLFCVGEFFGDDDDSNEKVINGNIEFPIPTYILGPANPRYSYLYPEESIEFSSNLTYLGKKGLLNTASGLQIAYLSGVEGSSKDLSCFDKADVEELLIPLGTQVGFSGTDILLTSVWPADIARHSHNQPSKPQPGSVLLSKLAAHLKPRYHFAGLGVHYERQPYRNHRVLLEPARHTTRFIGLAAIGNPEKQKWLYACNVKPMRKMEKEELTAQPPNASEFPYRELLEEIAAKETLSRMNGNGQRPEGSQYRFEMGGAEDGAGNGRKRHNDGGNDGPRNKQPVGPCWFCLSNVDAEKHLVVAIGNKCYAAMPKGPLTEDHVMVLSVGHIQSQVSAPVEVRDEIEKFKSAFTLMANKQGKALVTFERNFRTQHLQVQMVMIDKSSSKALKSSFTTAAACAGFELVTMGPDESLLDMVNEGCPYFVAELPDGSKLFTRSMKGFPLHFGREVLASTPILDCEDKVDWKACVLAKEKEVELVNKLKSDFKPFDFTAEDDSD	not soluble
MATRNEEILRKPDWLKIKLNTNDNYTGLKKMMREKNLHTVCEEAKCPNIHECWGARRTATFMILGAVCTRACRFCAVKTGLPNELDLNEPERVAESVELMNLKHVVITAVARDDLRDQGSNVYAETVRKVRERNPFTTIEILPSDMGGDYEALETLMASRPDILNHNIETVRRLTPRVRARATYDRTLQFLRRSKELQPDIPTKSSLMVGLGETMEEIYETMDDLRANDVDILTIGQYLQPSRKHLKVEKYYTPLEFGKMRKIAMEKGFKHCQAGPLVRSSYHADEQVNEAAKEKQRQGEEQLN	not soluble
MATTTMTMIQALRSAMDVMLERDDNVVVYGQDVGYFGGVFRCTEGLQTKYGKSRVFDAPISESGIVGTAVGMGAYGLRPVVEIQFADYFYPASDQIVSEMARLRYRSAGEFIAPLTLRMPCGGGIYGGQTHSQSPEAMFTQVCGLRTVMPSNPYDAKGLLIASIECDDPVIFLEPKRLYNGPFDGHHDRPVTPWSKHPHSAVPDGYYTVPLDKAAITRPGNDVSVLTYGTTVYVAQVAAEESGVDAEVIDLRSLWPLDLDTIVESVKKTGRCVVVHEATRTCGFGAELVSLVQEHCFHHLEAPIERVTGWDTPYPHAQEWAYFPGPSRVGAALKKVMEV	soluble
MATWEEYLGAQQANDGVQFTWNMWPHSRVDSQKLVVPLTCFFTPLKERPSTEVAQPPLEYDPVLCQKASCKAILNPLCAVDYRAKIWMCPFCNNRNPFPAHYAAIAEDNRPPELYPQFTTIEYTLRKATTMPPIFVFVVDTCMTAEELKSLKECLQTALSLLPADALVGLITYGRMVQLHELNTQGISRSYVFKGTKEVTAKQIKDVMAGGGLSQRPAAGAPGAPAGAPGAPMAMGSGAAPLGQLPGSGLPGGLPRGGGPPLPGAAQGIVAPGGGAPVPHAPANKFLQPISECDESINDLIDQISIDRWPVPQGHRPLRATGAALAVAVTLLESCFPSTGARIMSFIGGACTHGPGAVVGEELKNPIRSWNSIKEDAAPYMKKAIKFYDGLAARIVKNGHAVDVYSCALDQTGLLEMKNMFNSSGGHVVMGDSFNSSLFKQTYQRSFDKDSAGNLKMGFNATMEVKVGAGLKIEGVLGCCASGNVRNANVSDQEMGIGGTCQWKFGAISPRTTIGVVFEIAAQHGSAIPQGGRGMVQFVTQYQHADGRKRIRVTTTCRTWADMATQQPNIAYGFDQEAAAVAIARLASFRASNENDTPEALRWLDRSLIRLCQKFGEYSKDDPNSFRLSDKFSLFPQFMFHLRRSQFLQVFNNSPDETAYYRHILFSENVLESTTMIQPVLFSYSFNGPPEPVLLDTSSILADRILLMDDYFHVLIYHGQTIAQWRKQNFHENPQYATFKQLLEAPVADATSILQERFPMPRYIVTEHEGSQARFLLSKVNPSLTHNNPYANEAGSAVFTDDVSLQVFMEHLKKLSSSSST	not soluble
MAVCSLVAKITYAEERQQNNYPIILVNGFAGWGREEMLGVKYWGGVHDIQEDLKRNGYTVHTAAVGPVSSNWDRACELYAQINGGTVDYGAAHAEKHGHKRFGRTYSGFAPNWSETNKIHLVGHSMGGQTIRTLVQLLKEGSYEEKNYVKNHPNTKISPLFEGEKSYVHSVTTLATPHNGTTLADGSLLLPFVKDLLITAASFGGNDNLSLYDFKLDQWGLKKNTGESFFQYSNRILNSSIWKNTKDISQWDLSTDGAKELNNWVKTQLNVYYLSYSGHASQAAPITGLHLPHITMNKVLMGNAFFLGSYARYEENRPLIDTTWWQNDGVVNTSSMIAPSSNATVNNNESLQIGKWNHIETKANWDHLDMVGLSVSDTLGFSSIQEFYRAIAEKLSRLPK	not soluble
MAVESRSRVTSKLVKAHRAMLNSVTQEDLKVDRLPGADYPNPSKKYSSRTEFRDKTDYIMYNPRPRDEPSSENPVSVSPLLCELAAARSRIHFNPTETTIGIVTCGGICPGLNDVIRSITLTGINVYNVKRVIGFRFGYWGLSKKGSQTAIELHRGRVTNIHHYGGTILGSSRGPQDPKEMVDTLERLGVNILFTVGGDGTQRGALVISQEAKRRGVDISVFGVPKTIDNDLSFSHRTFGFQTAVEKAVQAIRAAYAEAVSANYGVGVVKLMGRDSGFIAAQAAVASAQANICLVPENPISEQEVMSLLERRFCHSRSCVIIVAEGFGQDWGRGSGGYDASGNKKLIDIGVILTEKVKAFLKANKSRYPDSTVKYIDPSYMIRACPPSANDALFCATLATLAVHEAMAGATGCIIAMRHNNYILVPIKVATSVRRVLDLRGQLWRQVREITVDLGSDVRLARKLEIRRELEAINRNRDRLHEELAKL	soluble
